Source: the supplement of paper PMC7877785
± gives the uncertainty stated by the source.

Test: self-splicing fitness, log relative to wild type (ln ratio); higher = more splicing; Tetrahymena group I intron in knt gene, E. coli kanamycin selection, DiMSum; sequences stand for … in CUCUCU…GGAGGGAAAAGUUAUCAGGCAUGCACCUGGUAGCUAGUCUUUAAACCAAUAGAUUGCAUCGGUUUAAAAGGCAAGACCGUCAAAUUGCGGGAAAGGGGUCAACAGCCGUUCAGUACCAAGUCUCAGGGGAAACUUUGAGAUGGCCUUGCAAAGGGUAUGGUAAUAAGCUGACGGACAUGGUCCUAACCACGCAGCCAAGUCCUAAGUCAACAGAUCUUCUGUUGAUAUGGAUGCAGUUCACAGACUAAAUGUCGGUCGGGGAAGAUGUAUUCUUCUCAUAAGAUAUAGUCGGACCUCUCCUUAAUGGGAGCUAGCGGAUGAAGUGAUGCAACACUGGAGCCGCUGGGAACUAAUUUGUAUGCGAAAGUAUAUUGAUUAGUUUUGGAGUACUCGUGGUCG
Procedure, shortened: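 The eight P1ex-region nucleotides of an intron in the knt kanamycin-resistance gene on pET-22b(+) were all randomised and the library put into E. coli BL21(DE3). Six replicate transformations were grown overnight at 37°C or 30°C on LB agar with or without 25 μg/mL kanamycin, together with 100 μg/mL carbenicillin, 50 μM IPTG and 0.2% rhamnose. Colonies were pooled and amplicon-sequenced on an Illumina HiSeq 2500. Fitness from DiMSum is the error-weighted combination of wild-type-normalised replicate fold changes, kanamycin over none.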

Row | Sequence | self-splicing fitness (ln) (30 °C) | self-splicing fitness (ln) (37 °C)
1 | GUGAAGCAAUAUUACGCCCC | -0.362 ± 0.33 | –
2 | UGCGAGCAAUAUUACGAUGG | -3.43 ± 0.2 | -1.93 ± 0.17
3 | UGACAGCAAUAUUACGAGAC | -3.79 ± 0.49 | -2.72 ± 0.46
4 | AUGUAGCAAUAUUACGGUUC | -1.72 ± 0.099 | -1.29 ± 0.12
5 | UGACAGCAAUAUUACGUCUU | -0.839 ± 0.049 | -0.539 ± 0.07
6 | CAAAAGCAAUAUUACGAAGC | -4.63 ± 0.36 | -2.27 ± 0.21
7 | CGCGAGCAAUAUUACGUACC | – | -2.69 ± 0.35
8 | GAAAAGCAAUAUUACGGUCC | -1.8 ± 0.23 | -0.588 ± 0.17
9 | GACGAGCAAUAUUACGUGCA | -3.06 ± 0.17 | -0.901 ± 0.16
10 | GUGGAGCAAUAUUACGCAAA | -2.28 ± 0.43 | -1.83 ± 0.25
11 | UACUAGCAAUAUUACGCAAA | -2.94 ± 0.31 | -0.966 ± 0.2
12 | ACUGAGCAAUAUUACGGAUG | -2.58 ± 0.12 | -1.67 ± 0.14
13 | GGCCAGCAAUAUUACGUGAA | -1.67 ± 0.066 | -0.271 ± 0.077
14 | AUCGAGCAAUAUUACGGGUC | -3.91 ± 0.19 | -3.15 ± 0.18
15 | CUUGAGCAAUAUUACGGCUU | -3.95 ± 0.22 | -2.41 ± 0.24
16 | GUCUAGCAAUAUUACGUAAC | -0.708 ± 0.13 | -0.195 ± 0.13
17 | CUUCAGCAAUAUUACGUCAC | – | -1.41 ± 0.19
18 | ACGAAGCAAUAUUACGAGGA | -3.29 ± 0.44 | -2 ± 0.29
19 | AAGGAGCAAUAUUACGUACU | -0.884 ± 0.11 | -0.189 ± 0.11
20 | AGGAAGCAAUAUUACGUGUU | -3.8 ± 0.21 | -0.935 ± 0.14
21 | CUGAAGCAAUAUUACGACUU | -3.13 ± 0.35 | -1.75 ± 0.3
22 | UACCAGCAAUAUUACGACCC | -2.84 ± 0.5 | -1.02 ± 0.44

Row | Sequence | self-splicing fitness (ln) (30 °C) | self-splicing fitness (ln) (37 °C)
23 | CGGCAGCAAUAUUACGGGCU | -3.81 ± 0.22 | -2.16 ± 0.24
24 | UCCCAGCAAUAUUACGGCAA | -0.595 ± 0.1 | 0.128 ± 0.11
25 | CGUAAGCAAUAUUACGAGGG | -2.74 ± 0.19 | -1.86 ± 0.24
26 | AUACAGCAAUAUUACGAUUA | -1.18 ± 0.11 | -0.625 ± 0.11
27 | GCAAAGCAAUAUUACGGGGU | -3.73 ± 0.15 | -2.5 ± 0.15
28 | UAACAGCAAUAUUACGAACU | -0.722 ± 0.11 | -0.651 ± 0.15
29 | CGGGAGCAAUAUUACGCGCG | – | -0.901 ± 0.27
30 | AGGAAGCAAUAUUACGAUUC | -1.41 ± 0.15 | -2.53 ± 0.18
31 | UAAUAGCAAUAUUACGGACC | – | -1.42 ± 0.29
32 | AAUGAGCAAUAUUACGAUAC | -4 ± 0.33 | –
33 | CGUAAGCAAUAUUACGCAUG | -1.88 ± 0.13 | -0.863 ± 0.13
34 | AGCCAGCAAUAUUACGUGGA | -3.81 ± 0.18 | -2.65 ± 0.14
35 | AGCGAGCAAUAUUACGCCAA | -3.98 ± 0.25 | -1.56 ± 0.16
36 | GAGUAGCAAUAUUACGGUGC | -1.19 ± 0.15 | 0.00945 ± 0.18
37 | UACUAGCAAUAUUACGUAAG | -4.32 ± 0.31 | -3.07 ± 0.3
38 | AUUAAGCAAUAUUACGGCAU | -0.722 ± 0.076 | -0.458 ± 0.094
39 | UCCUAGCAAUAUUACGUACC | -2.36 ± 0.47 | –
40 | ACGGAGCAAUAUUACGGAGA | – | -2.01 ± 0.46
41 | CACAAGCAAUAUUACGUCCU | -1.84 ± 0.12 | -1.05 ± 0.15
42 | UUCCAGCAAUAUUACGCUCC | -2.51 ± 0.24 | -0.988 ± 0.22
43 | CUAUAGCAAUAUUACGCCCG | -0.353 ± 0.24 | -0.0929 ± 0.34
44 | ACCGAGCAAUAUUACGAUGG | -2.27 ± 0.094 | -1.39 ± 0.11

Row | Sequence | self-splicing fitness (ln) (30 °C) | self-splicing fitness (ln) (37 °C)
45 | AACAAGCAAUAUUACGGAGC | -4.22 ± 0.3 | -3.65 ± 0.36
46 | CGACAGCAAUAUUACGUCUG | -1.54 ± 0.083 | -0.38 ± 0.092
47 | CUACAGCAAUAUUACGACGC | -3.16 ± 0.34 | -2.08 ± 0.27
48 | UGGCAGCAAUAUUACGCUAG | -1.41 ± 0.077 | -0.514 ± 0.11
49 | UUAGAGCAAUAUUACGCCUU | -2.34 ± 0.13 | -1.08 ± 0.16
50 | UUUCAGCAAUAUUACGAUCC | – | -0.887 ± 0.39
51 | CUUCAGCAAUAUUACGGGUC | -3.39 ± 0.28 | -0.947 ± 0.25
52 | UAACAGCAAUAUUACGGCGA | -0.267 ± 0.077 | -0.198 ± 0.08
53 | CCUUAGCAAUAUUACGACAC | -2 ± 0.14 | -2.1 ± 0.25
54 | GAUUAGCAAUAUUACGCCCU | -0.409 ± 0.49 | –
55 | GCCGAGCAAUAUUACGCAUA | -3.39 ± 0.22 | -1.41 ± 0.16
56 | UCUCAGCAAUAUUACGAAUU | -3.12 ± 0.13 | -1.77 ± 0.15
57 | ACACAGCAAUAUUACGGCCG | -0.675 ± 0.095 | -0.395 ± 0.12
58 | CAAGAGCAAUAUUACGGAUC | -3.07 ± 0.18 | -3.27 ± 0.27
59 | GGCUAGCAAUAUUACGAUCC | 0.227 ± 0.47 | –
60 | CAUGAGCAAUAUUACGCCGC | -3.56 ± 0.2 | -2.71 ± 0.22
61 | UCCUAGCAAUAUUACGUGAC | -3.85 ± 0.2 | -3.03 ± 0.21
62 | UUGUAGCAAUAUUACGUUUC | -3.69 ± 0.46 | –
63 | AAGCAGCAAUAUUACGCCGU | -1.22 ± 0.11 | -0.738 ± 0.13
64 | ACUGAGCAAUAUUACGCAAC | -3.87 ± 0.31 | –
